Measurements as given in the supplement of paper PMC12764529.
± gives the half width of the 95% confidence interval.

Assay: folding stability dG unfold (combined trypsin and chymotrypsin); higher = more stable
Outline: (§1)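 Bayesian fitting of sequencing counts gave K50 for each design. Unfolding free energy followed by setting this against a sequence-predicted unfolded-state K50 and a shared folded-state K50, either per protease or with trypsin and chymotrypsin combined. The designs, under 80 residues and lacking cysteine, were digested in a PA-tagged cDNA display format at 11 threefold-diluted protease concentrations and without protease, and only those with AlphaFold2 dimer inter-PAE above 15 were kept.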

Row | Sequence | folding stability dG unfold
1 | SAGGSAGGSAGGPMEPIELTFMIPHPNGHPIVAKTEIWRMKNGFFIKPEIYNPDGNPIPSAGGSAGGSAGGS [r10_1056_TrROS] | -0.207 ± 0.18 kcal/mol
2 | SAGGSAGGSAGGSDGALIFIIHIKMEMELEPNPDGPPKWDMDWDIEPTWIQIDDPEDFKSAGGSAGGSAGGS [r4_450_TrROS] | 2.19 ± 0.21 kcal/mol
3 | SDPDAKLLPATFTFRDPLTGEEVTVEVTVYETSGYLLAPAKVTVTLPTKPRTLTATLLVDENGNVHLFVSSA [r9_1015_TrMRF] | 3.73 ± 0.17 kcal/mol
4 | SAGGMKIIEIEDRGPGKFAGPETVLEALRKALPGIPIEVLDYDPEKHVIRIRVPEEAVPRIVEAFKSSAGGS [r8_235_TrMRF] | 3.88 ± 0.057 kcal/mol
5 | SAGPPGQPIKPIDITVKPEENTITIKFGDKNLEIPIPPGVEADIWVYPDHIVITIEFPDGKIVTIVLPFSAG [r5_21_TrROS] | 4.33 ± 0.26 kcal/mol
6 | SAGGSAGGSAEKVITVWIPLPPGQGVDEIAKEIARYLGFPNIKIDNIQYDPEDGWYQITFKLSAGGSAGGSA [r18_481_TrROS] | 3.97 ± 0.061 kcal/mol
7 | SAGPEVVVFKGIEVEVTEVPPELLENLPPDVIAIPFGDRVLLIRVREYDVARFPPIPPLGANPETGELSSAG [r14_126_TrMRF] | 2.44 ± 0.3 kcal/mol
8 | SVEELAKKLAELFPNVKVTVTEEEIDGKKVKTIRIENKKTGKTYEITVLPNGEILITDSNGKKFSLEELLSA [r9_1176_TrROS_Hall] | 4.86 ± 0.25 kcal/mol
9 | SKLKIEDIKWNPNYPGMYEFKIKLPDKPATIQIPHDPNNGRFMMEIWYPDKPVTVQFDSWDDALAFIKELSA [r9_366_TrROS] | 1.52 ± 0.11 kcal/mol
10 | SAGGSAGGSWRTITYEFKLPKPGQTAEDIAKEIMQLFPGVKDIEIKYYPEEGYIKVDIRFRPNSAGGSAGGS [r20_31_TrROS] | 3.13 ± 0.22 kcal/mol
11 | SAMEKPLETLEIPIPGLPVTVKITIYPSHIEKAKESGIPEITVEALLTIELPDGSKVEKKIPLTVKIPGSAG [r14_100_JUSTAS] | 1.61 ± 0.11 kcal/mol
12 | SMSREELREYARAHPDRPLALILPGKKTLLLFDPATGAEREEDITSVEEAKERLAAQPVAVVEVVSAELLSA [r9_775_JUSTAS] | 0.294 ± 0.11 kcal/mol
13 | SAGGSAGGSAGGLPPFDLGFESVEVEEVFPDGPVVVTVRLPDRTVRLVVVGGRIVRVEPSSAGGSAGGSAGG [r17_396_TrMRF] | 1.75 ± 0.085 kcal/mol
14 | SAGGSAGGSALPLPPDQRLYVFRDPEGDLYLVRFEDGSEVRTSLKAEDLEKLGVPVVDIGDLSAGGSAGGSA [r18_125_TrMRF] | 1.66 ± 0.032 kcal/mol
15 | SMLEKIEKAIESGNDGILVPLKLTPEEFKKVRAYLEELGFTLLSEEELAVGPVPVYELTFKVNTKTGEAASA [r9_498_JUSTAS] | 2.17 ± 0.13 kcal/mol
16 | SAGGMKTVEIEIPVPPGMSIEELVKKLLEELKKKKDIKEVEIEITLKDGSKIKIRVNKNGKIVKVEKLSAGG [r13_690_TrROS_Hall] | 2.25 ± 0.15 kcal/mol
17 | SAGGPNFTIKIEIEEIPNGVRVHKMTMELPDGHAWLMVMLYSPDPGKMFMIMVPVDPNGGIEDINIMPSAGG [r13_323_TrROS] | 3.92 ± 0.19 kcal/mol
18 | SAGGSAGGSAGGMVVEVVELPDGQLVVRAGPVGYAVVFNGEEVTLFELPPDAEVELLPFSAGGSAGGSAGGS [r10_637_TrMRF] | 1.36 ± 0.098 kcal/mol
19 | SAVINIEAWFPPGKSVEEAVDEAKNIIHQFGFEIDDVDVERDPNGWVRVDFTIKIKPPMPPEQRKKLQDSAG [r14_110_TrROS] | 2.45 ± 0.26 kcal/mol
20 | MKIIDVVPTPDGLIVVIKVVFPNTEEAYVSASDLDKLIKEIFERFGVKPEYLKITDIKAFSPEELKEFLEES [r1_119_TrMRF] | 2.78 ± 0.075 kcal/mol
21 | SAGGSAGGSAGGMTPEEKIEALIKATPPLTVKTSGPGVSYEVEDLEKLKKLNVTISSVLGSAGGSAGGSAGG [r7_504_JUSTAS] | -0.637 ± 0.22 kcal/mol

Assay: folding stability dG unfold from trypsin proteolysis; higher = more stable
Outline: as §1

Row | Sequence | folding stability dG unfold
22 | SGLKDVISVTVTQSPTAGEVPVVTAYSPDGSRTFNLAPEETEAFLKALREAGYNVVVTDRVFVPVPAELGSA [r9_607_JUSTAS] | 1.676 ± 0.016 kcal/mol
23 | SAGGSAGGSAGGAEITIEEKDGKLTLTVRLPDGYVATATFDPNGKWTIKEIKVYKLPEGLSAGGSAGGSAGG [r7_826_TrROS_Hall] | 2.35 ± 0.3 kcal/mol
24 | SEKPEFKIVKIEVVEVDEDGKTVKVRVVVEGPDGRLYEVEMTLEELKKLLEELGIDLEDIKPGDVIVIPPSA [r9_1078_TrROS_Hall] | 3.75 ± 0.11 kcal/mol
25 | SAGGSAGGSAAYTTPDGTNIILKDPNRPVVSLYKKDPSTNTWTPVSTLPISEVPEEILELLSAGGSAGGSAG [r3_241_JUSTAS] | 0.426 ± 0.022 kcal/mol
26 | SKKKKKKKKKKVIIKIKKDGKEIYIEMTVEEIKELLKKGVKKIEIYSPSEEEKEKIKKLLEEEGVEVEEVSA [r9_810_TrROS_Hall] | 2 ± 0.1 kcal/mol
27 | SAGGSMTMTVEIHYPDGTVETRTVPYAPDDPAAAIAAVKAEVEARGGEVLAVETRDGVVTVKALVPPSAGGS [r16_662_JUSTAS] | 2.4 ± 0.07 kcal/mol
28 | SISITLPDGTKTVSQSFNPEGNTITYTMEAPGKKITITLTEKVVGGSKEISVKITTDPVPLTPEEVAALKAS [r1_154_JUSTAS] | 2.03 ± 0.13 kcal/mol
29 | SAGGSAGGSAGGGMSLSYTVTTSTTVVPAPDGVTVLHPTTTTFPGGPTTTTTTVTVEPAGSAGGSAGGSAGG [r7_701_JUSTAS] | 0.872 ± 0.021 kcal/mol
30 | SAGGSAGGSALAEELAAKYPGLQVEVTRVEVEREVTDADGRKRTERVERLEIRVVKPGEELSAGGSAGGSAG [r3_358_TrROS_Hall] | 0.5 ± 0.034 kcal/mol
31 | SAGGSAITIEVTMNPNGYMGIRLRDPGNGEEIQIPFPMEPGQNPEDVRNWAREIVDELKKDGWRIYSAGGSA [r15_1022_TrROS] | 1.28 ± 0.019 kcal/mol
32 | SAGGSAGGSAGGSNIPSDSTVTSKGSSDTTTSTYYNPETGTTLVTTTPPDGVPTTTTTASAGGSAGGSAGGS [r10_592_JUSTAS] | 0.621 ± 0.059 kcal/mol
33 | SAGGSAMKKVTVTVKFPDGTTYTFDMDTESEEEFEKKVREEALKRFPDIPLEDVEVTEVVVTPELLSAGGSA [r15_220_JUSTAS] | 2.3 ± 0.16 kcal/mol
34 | SAGGSAGGPFVLKFPDPKNMNKLQEAASDHGMNMNRNPEKGTHVINFGGNMLDELQELPGIEIVSAGGSAGG [r6_726_TrROS] | -1.05 ± 0.15 kcal/mol
35 | SAGGRIRIEYDPENGTITIYVPTPDGEITPDQVEEIAKLLMELWPNIEVEIEPHPNGMVRITIKIPPKSAGG [r13_291_TrROS] | 3 ± 0.19 kcal/mol
36 | SAMVVTYDPATGKITVNVTLYVEEPLTPEERAALAAAIKAALAAAHPDVDVTVTLHPAPSPEEVEKLAASAG [r14_406_JUSTAS] | 2.92 ± 0.14 kcal/mol
37 | SAGSALAAALKLKTYTIKITAPDGTVIELTISYHPSDPEAIKEALAKAGYPPEKLKTENPNLETTEVDASAG [r5_430_JUSTAS] | 1.62 ± 0.071 kcal/mol
38 | SAGGSAGPLPNEKVEVTLTIPLNVLVLDEDGEPLTPEEIARRVRELFSDVSVTLEPGDRLVITLTESAGGSA [r15_645_TrMRF] | 2.006 ± 0.015 kcal/mol
39 | SAGGGLGADALAKKFKELFPNAKVEKLPNGKVLFYIPETGKLIEIYDLDDEQIIKIIDPNTPKVYIISAGGS [r16_478_TrMRF] | 1.68 ± 0.077 kcal/mol
40 | SAGGSAGGSGMTAEEAREKKVAELKAQGYTPVKVEVVETRTDPATGKVTTKIKIEYKSPKGLTSAGGSAGGS [r20_46_JUSTAS] | 0.0908 ± 0.081 kcal/mol
41 | SAGGSAGGSMRIKFEFKIGDKWVEEEIPADLSQLPLSEIKKKHPKAEYKIEIEDEEGNWTPLLSAGGSAGGS [r12_540_JUSTAS] | 0.262 ± 0.11 kcal/mol
42 | SAGGIKIERDPNMWKFEIPLPNKPLTIHISQSDGRYTIAIYENGKPIRTVPFPGPVDDAIERALKKLSAGGS [r8_276_TrROS] | 1.66 ± 0.034 kcal/mol

Row | Sequence | folding stability dG unfold
43 | SAGGSAGGSAGGPMEPIELTFMIPHPNGHPIVAKTEIWRMKNGFFIKPEIYNPDGNPIPSAGGSAGGSAGGS [r10_1056_TrROS] | -0.153 ± 0.25 kcal/mol
44 | SAGGSAGGSAGGSDGALIFIIHIKMEMELEPNPDGPPKWDMDWDIEPTWIQIDDPEDFKSAGGSAGGSAGGS [r4_450_TrROS] | 1.59 ± 0.13 kcal/mol
45 | SDPDAKLLPATFTFRDPLTGEEVTVEVTVYETSGYLLAPAKVTVTLPTKPRTLTATLLVDENGNVHLFVSSA [r9_1015_TrMRF] | 2.82 ± 0.2 kcal/mol
46 | SAGGMKIIEIEDRGPGKFAGPETVLEALRKALPGIPIEVLDYDPEKHVIRIRVPEEAVPRIVEAFKSSAGGS [r8_235_TrMRF] | 3.68 ± 0.098 kcal/mol
47 | SAGPPGQPIKPIDITVKPEENTITIKFGDKNLEIPIPPGVEADIWVYPDHIVITIEFPDGKIVTIVLPFSAG [r5_21_TrROS] | 3.73 ± 0.31 kcal/mol
48 | SAGGSAGGSAEKVITVWIPLPPGQGVDEIAKEIARYLGFPNIKIDNIQYDPEDGWYQITFKLSAGGSAGGSA [r18_481_TrROS] | 3.48 ± 0.096 kcal/mol
49 | SAGPEVVVFKGIEVEVTEVPPELLENLPPDVIAIPFGDRVLLIRVREYDVARFPPIPPLGANPETGELSSAG [r14_126_TrMRF] | 2.17 ± 0.12 kcal/mol
50 | SVEELAKKLAELFPNVKVTVTEEEIDGKKVKTIRIENKKTGKTYEITVLPNGEILITDSNGKKFSLEELLSA [r9_1176_TrROS_Hall] | 4.26 ± 0.27 kcal/mol
51 | SKLKIEDIKWNPNYPGMYEFKIKLPDKPATIQIPHDPNNGRFMMEIWYPDKPVTVQFDSWDDALAFIKELSA [r9_366_TrROS] | 1.6 ± 0.046 kcal/mol
52 | SAGGSAGGSWRTITYEFKLPKPGQTAEDIAKEIMQLFPGVKDIEIKYYPEEGYIKVDIRFRPNSAGGSAGGS [r20_31_TrROS] | 3.37 ± 0.2 kcal/mol
53 | SAMEKPLETLEIPIPGLPVTVKITIYPSHIEKAKESGIPEITVEALLTIELPDGSKVEKKIPLTVKIPGSAG [r14_100_JUSTAS] | 1.58 ± 0.043 kcal/mol
54 | SMSREELREYARAHPDRPLALILPGKKTLLLFDPATGAEREEDITSVEEAKERLAAQPVAVVEVVSAELLSA [r9_775_JUSTAS] | -0.439 ± 0.37 kcal/mol
55 | SAGGSAGGSAGGLPPFDLGFESVEVEEVFPDGPVVVTVRLPDRTVRLVVVGGRIVRVEPSSAGGSAGGSAGG [r17_396_TrMRF] | 1.68 ± 0.036 kcal/mol
56 | SAGGSAGGSALPLPPDQRLYVFRDPEGDLYLVRFEDGSEVRTSLKAEDLEKLGVPVVDIGDLSAGGSAGGSA [r18_125_TrMRF] | 1.73 ± 0.035 kcal/mol
57 | SMLEKIEKAIESGNDGILVPLKLTPEEFKKVRAYLEELGFTLLSEEELAVGPVPVYELTFKVNTKTGEAASA [r9_498_JUSTAS] | 1.88 ± 0.066 kcal/mol
58 | SAGGMKTVEIEIPVPPGMSIEELVKKLLEELKKKKDIKEVEIEITLKDGSKIKIRVNKNGKIVKVEKLSAGG [r13_690_TrROS_Hall] | 1.73 ± 0.056 kcal/mol
59 | SAGGPNFTIKIEIEEIPNGVRVHKMTMELPDGHAWLMVMLYSPDPGKMFMIMVPVDPNGGIEDINIMPSAGG [r13_323_TrROS] | 2.52 ± 0.077 kcal/mol
60 | SAGGSAGGSAGGMVVEVVELPDGQLVVRAGPVGYAVVFNGEEVTLFELPPDAEVELLPFSAGGSAGGSAGGS [r10_637_TrMRF] | 1.1 ± 0.032 kcal/mol
61 | SAVINIEAWFPPGKSVEEAVDEAKNIIHQFGFEIDDVDVERDPNGWVRVDFTIKIKPPMPPEQRKKLQDSAG [r14_110_TrROS] | 1.25 ± 0.051 kcal/mol
62 | MKIIDVVPTPDGLIVVIKVVFPNTEEAYVSASDLDKLIKEIFERFGVKPEYLKITDIKAFSPEELKEFLEES [r1_119_TrMRF] | 2.37 ± 0.072 kcal/mol
63 | SAGGSAGGSAGGMTPEEKIEALIKATPPLTVKTSGPGVSYEVEDLEKLKKLNVTISSVLGSAGGSAGGSAGG [r7_504_JUSTAS] | -1.3 ± 0.67 kcal/mol
